# B1: PEG-TRAIL NPs: hollow NPs (without Dox) conjugated to TRAIL via PEG (conjugate, UniProt P50591 1-281, looked up)
# Tumor necrosis factor ligand …: MAMMEVQGGPSLGQTCVLIVIFTVLLQSLCVAVTYVYFTNELKQMQDKYSKSGIACFLKEDDSYWDPNDEESMNSPCWQVKWQLRQLVRKMILRTSEETISTVQEKQQNISPLVRERGPQRVAAHITGTRGRSNTLSSPNSKNEKALGRKINSWESSRSGHSFLSNLHLRNGELVIHEKGFYYIYSQTYFRFQEEIKENTKNDKQMVQYIYKYTSYPDPILLMKSARNSCWSKDAEYGLYSIYQGGIFELKENDRIFVSVTNEHLIDMDHEASFFGAFLVG
# modifications: PEG-linked to hollow nanoparticles
# B2: free TRAIL: TNF-related apoptosis-inducing ligand (protein, UniProt P50591 1-281, looked up)
# Tumor necrosis factor ligand …: B1 Tumor necrosis factor ligand …
# Tests used:
# [1] = cited from earlier work
# [2] = Photostability under xenon lamp illumination; format: physicochemical; conditions: continuous illumination, 20 min
# Description: An aqueous solution of ICG ([…]) in PBS was prepared, and the fluorescence intensity with λex set at 780 nm and λem set at 800 nm was measured. A dispersion of NIR fluorescent P(EF-PLLA) nanoparticles in PBS was prepared, and diluted to give a similar fluorescence intensity to the dye at the same wavelengths. The excitation and emission slits were opened to 20 nm and 5 nm, respectively. Each of the samples was illuminated continuously with a xenon lamp, and the fluorescence intensity was measured over a period of 20 min by a Cary Eclipse fluorescence spectrophotometer (Agilent Technologies Inc.). Intensity values were normalized for comparison.
# [3] = test system: HCT116 human colon cancer cells; experiment: XTT cell viability, HCT116; format: cell-based
# Description: HCT116 human colon cancer cells were treated with 0.01 mg/mL NPs, hollow or containing 1.66 μg Dox, non-conjugated and conjugated to 35 ng TRAIL. Free Dox, free TRAIL and PBS served as control groups. Absorption was measured for all samples, each in six, with TECAN spectrophotometer to determine the cell viability. […] It was chosen to continue with the TRAIL-PEG-Dox NPs, as PEGylation modifies the physical and chemical properties of the drug, and can decrease immunogenicity and improve drug solubility.
molecule,measurement,setting,value
N[C@@H](Cc1c[nH]cn1)C(=O)O [histidine],pKa of α-amine group,[1],9.33
"CC1(C)C(/C=C/C=C/C=C/C=C2\N(CCCCS(=O)(=O)O)c3ccc4ccccc4c3C2(C)C)=[N+](CCCCS(=O)(=O)[O-])c2ccc3ccccc3c21 [free ICG, indocyanine green]",fluorescence intensity during illumination,[2],decreased significantly
B1,toxic effect,"[3]; 0.01 mg/mL NPs, 24 h and 72 h",did not have a toxic effect
B2,cell viability course,[3]; after 72 h,recovery in the cell viability
same,toxicity,[3]; over 24 h,good toxicity
